Reference: the supplement of paper PMC11246515
± gives the standard deviation of the averaged measurements.

Experiment: total protein half-life in vivo (active degradation + dilution); higher = more stable protein
[1] = E. coli NCM3722 delta-clpP delta-lon delta-hslV, growth: N-lim chemostat, doubling time 6 h
[2] = E. coli NCM3722 delta-clpP, growth: N-lim chemostat, doubling time 6 h
[3] = E. coli NCM3722 delta-hslV, growth: N-lim chemostat, doubling time 6 h
[4] = E. coli NCM3722 delta-lon, growth: N-lim chemostat, doubling time 6 h
[5] = E. coli NCM3722 delta-smpB, growth: N-lim chemostat, doubling time 6 h
[6] = wild type E. coli NCM3722, growth: C-lim chemostat, doubling time 3 h
[7] = wild type E. coli NCM3722, growth: C-lim chemostat, doubling time 6 h
[8] = wild type E. coli NCM3722, growth: C-lim chemostat, doubling time 12 h
[9] = wild type E. coli NCM3722, growth: N-lim chemostat, doubling time 6 h
[10] = wild type E. coli NCM3722, growth: N-lim chemostat, doubling time 12 h
[11] = wild type E. coli NCM3722, growth: P-lim chemostat, doubling time 6 h
[12] = wild type E. coli NCM3722, growth: P-lim chemostat, doubling time 12 h

Row | Sequence | total protein half-life in vivo [1] | total protein half-life in vivo [2] | total protein half-life in vivo [3] | total protein half-life in vivo [4] | total protein half-life in vivo [5] | total protein half-life in vivo [6] | total protein half-life in vivo [7] | total protein half-life in vivo [8] | total protein half-life in vivo [9] | total protein half-life in vivo [10] | total protein half-life in vivo [11] | total protein half-life in vivo [12]
1 | MQYIKIHALDNVAVALADLAEGTEVSVDNQTVTLRQDVARGHKFALTDIAKGANVIKYGLPIGYALADIAAGVHVHAHNTRTNLSDLDQYRYQPDFQDLPAQAADREVQIYRRANGDVGVRNELWILPTVGCVNGIARQIQNRFLKETNNAEGTDGVFLFSHTYGCSQLGDDHINTRTMLQNMVRHPNAGAVLVIGLGCENNQVAAFRETLGDIDPERVHFMICQQQDDEIEAGIEHLHQLYNVMRNDKREPGKLSELKFGLECGGSDGLSGITANPMLGRFSDYVIANGGTTVLTEVPEMFGAEQLLMDHCRDEATFEKLVTMVNDFKQYFIAHDQPIYENPSPGNKAGGITTLEDKSLGCTQKAGSSVVVDVLRYGERLKTPGLNLLSAPGNDAVATSALAGAGCHMVLFSTGRGTPYGGFVPTVKIATNSELAAKKKHWIDFDAGQLIHGKAMPQLLEEFIDTIVEFANGKQTCNERNDFRELAIFKSGVTL | 4.17 ± 0.22 h | 3.03 ± 0.15 h | 2.65 ± 0.042 h | 3.4 h | 2.51 ± 0.36 h | 2.61 ± 0.27 h | 3.9 ± 0.23 h | 4.43 ± 0.69 h | 2.63 ± 0.13 h | 3.74 ± 0.76 h | 3.94 ± 1.4 h | 6.84 ± 1.4 h
2 | MAVAANKRSVMTLFSGPTDIYSHQVRIVLAEKGVSFEIEHVEKDNPPQDLIDLNPNQSVPTLVDRELTLWESRIIMEYLDERFPHPPLMPVYPVARGESRLYMHRIEKDWYTLMNTIINGSASEADAARKQLREELLAIAPVFGQKPYFLSDEFSLVDCYLAPLLWRLPQLGIEFSGPGAKELKGYMTRVFERDSFLASLTEAEREMRLGRS [P0ACA3] | 5.94 ± 0.21 h | 5.92 ± 0.064 h | 5.87 ± 0.5 h | 6.44 ± 0.27 h | 5.54 ± 0.15 h | 2.919 ± 0.029 h | 5.9 ± 0.62 h | 10.9 ± 0.67 h | 5.8 ± 0.29 h | 11.6 ± 0.58 h | 5.85 ± 0.11 h | 13.5 ± 1.2 h
3 | MFPPMWRRLIYHPDINYALRQTLVLCLPVAVGLMLGELRFGLLFSLVPACCNIAGLDTPHKRFFKRLIIGASLFATCSLLTQLLLAKDVPLPFLLTGLTLVLGVTAELGPLHAKLLPASLLAAIFTLSLAGYMPVWEPLLIYALGTLWYGLFNWFWFWIWREQPLRESLSLLYRELADYCEAKYSLLTQHTDPEKALPPLLVRQQKAVDLITQCYQQMHMLSAQNNTDYKRMLRIFQEALDLQEHISVSLHQPEEVQKLVERSHAEEVIRWNAQTVAARLRVLADDILYHRLPTRFTMEKQIGALEKIARQHPDNPVGQFCYWHFSRIARVLRTQKPLYARDLLADKQRRMPLLPALKSYLSLKSPALRNAGRLSVMLSVASLMGTALHLPKSYWILMTVLLVTQNGYGATRLRIVNRSVGTVVGLIIAGVALHFKIPEGYTLTLMLITTLASYLILRKNYGWATVGFTITAVYTLQLLWLNGEQYILPRLIDTIIGCLIAFGGTVWLWPQWQSGLLRKNAHDALEAYQEAIRLILSEDPQPTPLAWQRMRVNQAHNTLYNSLNQAMQEPAFNSHYLADMKLWVTHSQFIVEHINAMTTLAREHRALPPELAQEYLQSCEIAIQRCQQRLEYDEPGSSGDANIMDAPEMQPHEGAAGTLEQHLQRVIGHLNTMHTISSMAWRQRPHHGIWLSRKLRDSKA | 6.2 ± 0.17 h | 6.9 h | 4.97 ± 0.47 h | 5.47 ± 0.38 h | 5.02 ± 0.33 h | > 4 h | 5.87 h | 13.4 ± 0.3 h | 6.05 ± 0.55 h | – | 6.24 ± 0.091 h | 12.2 ± 0.44 h
4 | MNMEEIVALSVKHNVSDLHLCSAWPARWRIRGRMEAAPFDTPDVEELLREWLDDDQRAILLENGQLDFAVSLAENQRLRGSAFAQRHGISLALRLLPSHCPQLEQLGAPTVLPELLKSENGLILVTGATGSGKSTTLAAMVGYLNQHADAHILTLEDPVEYLYASQRCLIQQREIGLHCMTFASGLRAALREDPDVILLGELRDSETIRLALTAAETGHLVLATLHTRGAAQAVERLVDSFPAQEKDPVRNQLAGSLRAVLSQKLEVDKQEGRVALFELLINTPAVGNLIREGKTHQLPHVIQTGQQVGMITFQQSYQHRVGEGRL | 5.68 ± 0.4 h | – | – | – | – | – | – | – | – | – | – | –
5 | MEMLSGAEMVVRSLIDQGVKQVFGYPGGAVLDIYDALHTVGGIDHVLVRHEQAAVHMADGLARATGEVGVVLVTSGPGATNAITGIATAYMDSIPLVVLSGQVATSLIGYDAFQECDMVGISRPVVKHSFLVKQTEDIPQVLKKAFWLAASGRPGPVVVDLPKDILNPANKLPYVWPESVSMRSYNPTTTGHKGQIKRALQTLVAAKKPVVYVGGGAITAGCHQQLKETVEALNLPVVCSLMGLGAFPATHRQALGMLGMHGTYEANMTMHNADVIFAVGVRFDDRTTNNLAKYCPNATVLHIDIDPTSISKTVTADIPIVGDARQVLEQMLELLSQESAHQPLDEIRDWWQQIEQWRARQCLKYDTHSEKIKPQAVIETLWRLTKGDAYVTSDVGQHQMFAALYYPFDKPRRWINSGGLGTMGFGLPAALGVKMALPEETVVCVTGDGSIQMNIQELSTALQYELPVLVVNLNNRYLGMVKQWQDMIYSGRHSQSYMQSLPDFVRLAEAYGHVGIQISHPHELESKLSEALEQVRNNRLVFVDVTVDGSEHVYPMQIRGGGMDEMWLSKTERT | 5.76 ± 1.1 h | 5.31 ± 0.18 h | 5.06 ± 0.41 h | 5.03 ± 0.088 h | 5.13 ± 0.46 h | 3.03 ± 0.14 h | 6.41 ± 0.94 h | 11.1 ± 0.39 h | 4.78 ± 0.1 h | 8.81 ± 0.62 h | 6.092 ± 0.014 h | 12 ± 0.24 h
6 | MKIRALLVAMSVATVLTGCQNMDSNGLLSSGAEAFQAYSLSDAQVKTLSDQACQEMDSKATIAPANSEYAKRLTTIANALGNNINGQPVNYKVYMAKDVNAFAMANGCIRVYSGLMDMMTDNEVEAVIGHEMGHVALGHVKKGMQVALGTNAVRVAAASAGGIVGSLSQSQLGNLGEKLVNSQFSQRQEAEADDYSYDLLRQRGISPAGLATSFEKLAKLEEGRQSSMFDDHPASAERAQHIRDRMSADGIK | 5.03 ± 0.95 h | 5.9 ± 0.43 h | 5.87 ± 0.4 h | – | 3.99 ± 0.98 h | 2.69 ± 0.21 h | 5.11 ± 0.41 h | 8.35 ± 1.9 h | 6.22 ± 0.35 h | 10.2 ± 2.9 h | 3.16 ± 0.24 h | 9.05 ± 5.4 h
7 | MKIKNILLTLCTSLLLTNVAAHAKEVKIGMAIDDLRLERWQKDRDIFVKKAESLGAKVFVQSANGNEETQMSQIENMINRGVDVLVIIPYNGQVLSNVVKEAKQEGIKVLAYDRMINDADIDFYISFDNEKVGELQAKALVDIVPQGNYFLMGGSPVDNNAKLFRAGQMKVLKPYVDSGKIKVVGDQWVDGWLPENALKIMENALTANNNKIDAVVASNDATAGGAIQALSAQGLSGKVAISGQDADLAGIKRIAAGTQTMTVYKPITLLANTAAEIAVELGNGQEPKADTTLNNGLKDVPSRLLTPIDVNKNNIKDTVIKDGFHKESEL | 4.59 ± 0.8 h | 5.33 ± 0.069 h | 5.88 ± 0.42 h | 4.43 h | 6.1 ± 0.13 h | 2.99 ± 0.08 h | 5.41 ± 0.45 h | 8.38 ± 1.2 h | 5.53 ± 0.86 h | 11.2 ± 2.2 h | 5.733 ± 0.025 h | 11.9 ± 0.15 h
